Where no end group is shown, it is not given here.
B1: Phage-2803 (peptide)
peptide: VKHVCMPEWMCYWS
modifications: cysteine pairing not given here; also: fused to pIII, displayed on bacteriophage
B2: Phage-2820 (Peptide-180 library clone) (peptide)
peptide: FEKWCTPLWMCADS
modifications: cysteine pairing not given here; also: fused to pIII, displayed on bacteriophage
B3: Phage-2819 (Peptide-180 library clone) (peptide)
peptide: IDKWCKPVWMCADN
modifications: cysteine pairing not given here; also: fused to pIII, displayed on bacteriophage

Each binder was assayed against T1, PSMA Fab (006 PSMA Fab) (biotinylated for capture on neutravidin plates (site not stated)) (assay: clonal phage ELISA on biotinylated PSMA Fab captured on neutravidin plates, anti-M13-HRP detection;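 note: crude clonal phage supernatants added to wells preincubated with PSMA antigen or with blocking buffer only (no wash between), briefly incubated, then washed before detecting bound phage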).
T1 construct: also called Anti-PSMA Fab

Binder | Phage binding ELISA signal, Anti-PSMA Fab
VTKLCIPEWMCVIQ [Phage-2809] | 0.562
WENWCIPQWMCGTA [Phage-2807] | 0.565
SVHMCKPPWMCQSM [Phage-2818] | 0.509
IDKWCVPAWMCSPA [Phage-2815] | 0.538
MMHWCTPPWMCEFS [Phage-2805] | 0.568
EAKWCTPPWMCSLV [Phage-2817] | 0.525
MEKWCTPRWMCVGM [Phage-2808] | 0.565
VGPWCIPDWMCDVV [Phage-2812] | 0.554
VPKWCTPSWMCEFT [Phage-2811] | 0.56
PMKWCTPPWMCSYS [Phage-2814] | 0.538
EGKWCTPTWMCQGF [Phage-2804] | 0.57
GDKWCKPSWMCDFF [Phage-2816] | 0.526
FSKLCTPPWMCSVS [Phage-2813] | 0.543
MDIWCKPRWMCEEY [Phage-2810] | 0.562
GATWCTPTWMCTGF [Phage-2806] | 0.566
B1 | 0.57

Each binder was assayed against T2, PSMA Fab (006 PSMA Fab) (assay: phage ELISA; biotinylated PSMA Fab on neutravidin plate, clonal phage supernatant, anti-M13 HRP detection;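 note: wells preincubated with PSMA antigen in blocking buffer or with blocking buffer only before clonal phage were added for a short incubation, then bound phage detected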).
T2 construct: In the phage ELISA the PSMA Fab was biotinylated and captured on neutravidin coated plates; also called Anti-PSMA Fab; anti-PSMA Fab
Experimental: (§1) Clonal phage were harvested as crude supernatants and screened via standard ELISAs. […] Prior to the addition of clonal phage. wells were incubated with blocking buffer and PSMA antigen or blocking buffer alone. Without washing or aspirating, clonal phage supernatants were then added to the wells and incubated for a short time. Wells were then washed followed by detection of bound phage using a horse radish conjugated anti-M13 antibody.

Binder | Phage binding ELISA signal, Anti-PSMA Fab
SSNWCTPAWMCVTS [Phage-2826 (Peptide-180 library clone)] | 0.47
LEKWCIPSQLCQLD [Phage-2827 (Peptide-180 library clone)] | 0.464
WDNWCTPSWMCSTA [Phage-2821 (Peptide-180 library clone)] | 0.488
GEKWCSPAWMCEWL [Phage-2828 (Peptide-180 library clone)] | 0.459
GLPWCVPQWMCVVS [Phage-2824 (Peptide-180 library clone)] | 0.482
DIRWCTPPWMCMHL [Phage-2822 (Peptide-180 library clone)] | 0.486
GVNWCVPPWMCLND [Phage-2823 (Peptide-180 library clone)] | 0.484
DVKWCTPRWMCELS [Phage-2829 (Peptide-180 library clone)] | 0.457
AFPSCIPEWMCSGM [Phage-2831 (Peptide-180 library clone)] | 0.45
NTNWCTPPWMCEGL [Phage-2834 (Peptide-180 library clone)] | 0.442
B2 | 0.5
YHKWCTPEWMCVFD [Phage-2825 (Peptide-180 library clone)] | 0.474
EFKWCSPAQLCVNG [Phage-2832 (Peptide-180 library clone)] | 0.447
B3 | 0.5
QAIWCIPDWMCVQN [Phage-2830 (Peptide-180 library clone)] | 0.454
EVKWCTPYWMCIDT [Phage-2833 (Peptide-180 library clone)] | 0.443

The binders below were run against T2, PSMA Fab (006 PSMA Fab) (assay: phage ELISA; PSMA Fab on plate pre-incubated with PSMA antigen as competitor, anti-M13 HRP detection;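 note: crude clonal phage supernatants added to Fab-coated wells still holding PSMA antigen in blocking buffer, with bound phage as read-out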).
Experimental: as §1

Binder | phage binding ELISA signal (Anti-PSMA Fab, PSMA antigen present)
SSNWCTPAWMCVTS [Phage-2826 (Peptide-180 library clone)] | 0.0627
LEKWCIPSQLCQLD [Phage-2827 (Peptide-180 library clone)] | 0.0743
WDNWCTPSWMCSTA [Phage-2821 (Peptide-180 library clone)] | 0.0814
GEKWCSPAWMCEWL [Phage-2828 (Peptide-180 library clone)] | 0.0817
GLPWCVPQWMCVVS [Phage-2824 (Peptide-180 library clone)] | 0.0721
DIRWCTPPWMCMHL [Phage-2822 (Peptide-180 library clone)] | 0.258
GVNWCVPPWMCLND [Phage-2823 (Peptide-180 library clone)] | 0.0879
DVKWCTPRWMCELS [Phage-2829 (Peptide-180 library clone)] | 0.0913
AFPSCIPEWMCSGM [Phage-2831 (Peptide-180 library clone)] | 0.149
NTNWCTPPWMCEGL [Phage-2834 (Peptide-180 library clone)] | 0.0664
B2 | 0.0612
YHKWCTPEWMCVFD [Phage-2825 (Peptide-180 library clone)] | 0.0666
EFKWCSPAQLCVNG [Phage-2832 (Peptide-180 library clone)] | 0.0526
B3 | 0.0659
QAIWCIPDWMCVQN [Phage-2830 (Peptide-180 library clone)] | 0.137
EVKWCTPYWMCIDT [Phage-2833 (Peptide-180 library clone)] | 0.072

Each binder was assayed against T3, PSMA Fab (biotinylated (site not stated)) (assay: clonal phage ELISA on biotinylated PSMA Fab captured on neutravidin plates, anti-M13 HRP detection;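 note: crude clonal phage supernatants tested, before phage were added, wells were pretreated with PSMA antigen in blocking buffer or with blocking buffer only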).
T3 construct: also called Anti-PSMA Fab; 006 PSMA Fab

Binder | Phage binding ELISA signal, Anti-PSMA Fab
TPKWCTPAWMCVVS [Phage-2802] | 0.575

These binders were tested against T1, PSMA Fab (006 PSMA Fab) (assay: clonal phage ELISA on captured PSMA Fab pre-incubated with PSMA antigen as competitor, anti-M13-HRP detection;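 note: wells blocked with buffer plus PSMA antigen before phage addition, with blocking buffer alone as the no-competitor control, bound phage detected after washing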).
Experimental: as §1

Binder | Phage binding ELISA signal, Anti-PSMA Fab in presence of PSMA
VTKLCIPEWMCVIQ [Phage-2809] | 0.0595
WENWCIPQWMCGTA [Phage-2807] | 0.141
SVHMCKPPWMCQSM [Phage-2818] | 0.077
IDKWCVPAWMCSPA [Phage-2815] | 0.06
MMHWCTPPWMCEFS [Phage-2805] | 0.0626
EAKWCTPPWMCSLV [Phage-2817] | 0.0546
MEKWCTPRWMCVGM [Phage-2808] | 0.0734
VGPWCIPDWMCDVV [Phage-2812] | 0.0755
VPKWCTPSWMCEFT [Phage-2811] | 0.0648
PMKWCTPPWMCSYS [Phage-2814] | 0.063
EGKWCTPTWMCQGF [Phage-2804] | 0.0945
GDKWCKPSWMCDFF [Phage-2816] | 0.072
FSKLCTPPWMCSVS [Phage-2813] | 0.276
MDIWCKPRWMCEEY [Phage-2810] | 0.0676
GATWCTPTWMCTGF [Phage-2806] | 0.117
B1 | 0.0724

The binders below were run against T3, PSMA Fab (assay: clonal phage ELISA on captured biotinylated PSMA Fab; competitor: PSMA antigen at saturating concentration).
Experimental: as §1

Binder | phage binding ELISA signal (Anti-PSMA Fab, wells pre-incubated with PSMA antigen)
TPKWCTPAWMCVVS [Phage-2802] | 0.077
